Measured values from the supplement of paper PMC10724198.

Assays:
Saccharomyces cerevisiae [1] = assay: protein stability index of tFT-peptide fusion in deletion strain of DOA10 (PSI (0-1 scale)); higher = more stable (slower turnover)
Description: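 MPS profiling in S. cerevisiae of two library types built from selected 12-aa C-degron peptides (IN1, IN2, LN1, LN3, VN2, R1-R5, W1-W3, Atg1 and Rpa12 C-termini): saturation mutagenesis libraries and C-terminal +1 capping libraries (13 aa). Each peptide is fused to the C-terminus of a sfGFP-mCherry timer, after a GGGS linker. Cells are FACS-sorted into 8 mCherry/sfGFP bins and sequenced. PSI runs from 0 (unstable) to 1 (stable), measured once in wild type and in the das1Δ or doa10Δ background.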

Saccharomyces cerevisiae [2] = assay: protein stability index of tFT-peptide fusion in wild type (PSI (0-1 scale)); higher = more stable (slower turnover); conditions: genetic background: wild type
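For protein stability index of tFT-peptide fusion in deletion strain of DOA10 in this document: PSI per variant is the weighted mean of its sequencing read distribution over the sorted stability bins, counting only variants with over 10 reads summed across bins.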
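For protein stability index of tFT-peptide fusion in wild type in this document: PSI derived as read-weighted mean over the 8 sorting bins, only variants exceeding 10 total reads kept, mCherry placed adjacent to the peptide and sfGFP distal.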

Sequence	protein stability index (Saccharomyces cerevisiae [1])	protein stability index (Saccharomyces cerevisiae [2])
GCYMCSVGCWFR	0.667	0.326
GIYMCSVGCWFR	0.611	0.256
GLYACSVGCWFR	0.678	0.386
GLYDCSVGCWFR	0.716	0.56
GLYKCSVGCWFR	0.671	0.453
GLYMCEVGCWFR	0.642	0.485
GLYMCGVGCWFR	0.682	0.335
GLYMCQVGCWFR	0.641	0.308
GLYMCSVGCGFR	0.655	0.628
GLYMCSVGCWCR	0.45	0.334
GLYMCSVGCWFD	0.518	0.471
GLYMCSVGCWFI	0.585	0.44
GLYMCSVGCWFM	0.586	0.543
GLYMCSVPCWFR	0.682	0.646
GLYMCSVWCWFR	0.399	0.305
GLYMPSVGCWFR	0.683	0.196
GLYMRSVGCWFR	0.688	0.252
GLYMSSVGCWFR	0.688	0.299
GLYMYSVGCWFR	0.605	0.238
GLYPCSVGCWFR	0.678	0.394
GQYMCSVGCWFR	0.673	0.363
GWYMCSVGCWFR	0.601	0.168
HLVSLPILLFFR	0.618	0.108
HSLRVLLPLYFR	0.669	0.309
KLYMCSVGCWFR	0.654	0.349
KVTRLDAIYFRI	0.67	0.251

Sequence	protein stability index (Saccharomyces cerevisiae [1])	protein stability index (Saccharomyces cerevisiae [2])
LLYMCSVGCWFR	0.571	0.348
LSLRVLLPLYFR	0.616	0.311
MLVSLPILLFFR	0.565	0.089
NITLPMCPLLLR	0.664	0.359
RDLRVLLPLYFR	0.675	0.295
RFLRVLLPLYFR	0.666	0.381
RPTRLDAIYFRI	0.666	0.504
RSERVLLPLYFR	0.674	0.365
RSGRVLLPLYFR	0.665	0.372
RSLPVLLPLYFR	0.672	0.186
RSLRCLLPLYFR	0.681	0.408
RSLRKLLPLYFR	0.67	0.474
RSLRVLDPLYFR	0.721	0.556
RSLRVLLELYFR	0.593	0.557
RSLRVLLPLWFR	0.67	0.459
RSLRVLLPLYDR	0.708	0.652
RSLRVLLPLYFRN	0.5	0.204
RSLRVLLPLYGR	0.642	0.595
RSLRVLLPLYVR	0.35	0.202
RSLRVLLWLYFR	0.524	0.166
RSLRVLLYLYFR	0.479	0.235
RSLRVLSPLYFR	0.691	0.308
RSLRVRLPLYFR	0.675	0.187
RSNRVLLPLYFR	0.701	0.334
RSQRVLLPLYFR	0.705	0.308
RSVRVLLPLYFR	0.661	0.238

Sequence	protein stability index (Saccharomyces cerevisiae [1])	protein stability index (Saccharomyces cerevisiae [2])
RVKRLDAIYFRI	0.64	0.392
RVTELDAIYFRI	0.64	0.633
RVTRHDAIYFRI	0.689	0.517
RVTRLDAIAFRI	0.708	0.673
RVTRLDAICFRI	0.713	0.656
RVTRLDAIYERI	0.708	0.67
RVTRLDAIYFHI	0.527	0.491
RVTRLDAIYFNI	0.703	0.572
RVTRLDAIYFRE	0.725	0.676
RVTRLDAIYFRIR	0.717	0.589
RVTRLDAIYFRN	0.676	0.6
RVTRLDAIYFRV	0.63	0.342
RVTRLDAIYFTI	0.64	0.548
RVTRLDAIYFWI	0.561	0.523
RVTRLDAIYKRI	0.698	0.667
RVTRLDAIYLRI	0.704	0.302
RVTRLDANYFRI	0.716	0.689
RVTRLDAYYFRI	0.714	0.609
RVTRLDLIYFRI	0.654	0.224
RVTRLDPIYFRI	0.707	0.462
RVTRLNAIYFRI	0.496	0.229
RVTRPDAIYFRI	0.706	0.34
RVVRLDAIYFRI	0.65	0.399
YSLRVLLPLYFR	0.632	0.244
